Assay results as given in patent US20030026781A1, “Compositions and methods for regulating endogenous inhibitor of ATP synthase, including treatment for diabetes” (MitoKor, priority 1999, published 2003).
Entries after “also recorded” stand apart in the source; their conditions may differ. Read-outs that look alike come from different tables or passages of the source. Blank lines part the entries; values can stand above or below the molecule they belong to.

What was measured:
[1] = target: T1, mitochondrial ATP synthase (ETC Complex V) in rat liver submitochondrial particles (Rattus norvegicus, UniProt P10719+P15999); assay: Oligomycin-sensitive ATPase (ATP hydrolase) activity in rat liver submitochondrial particles (SMP); type: biochemical; details: read-out: IC50 for oligomycin-sensitive ATPase inhibition
T1 construct: rat liver submitochondrial particles (SMP) prepared from male Sprague-Dawley rat livers; from tissue; host or cells: male Sprague-Dawley rat liver, submitochondrial particles (method of Walker et al. 1995)
Procedure: The IF1(42-58) polypeptide was also tested for its ability to inhibit the F0-F1-ATPase in rat ASMPs (alkaline submitochondrial particles) prepared as in the preceding Example. […] ATP hydrolase activity was expressed as the percent of detectable activity in the absence of added IF1-containing fusion protein, and the level of oligomycin-inhibitable activity was also determined (FIG. 8).
The effects of the IF1 peptides on ATPase activity were determined by assaying ATPase in rat liver submitochondrial particles (SMP) prepared from male Sprague-Dawley rat livers according to the method of Walker et al. (1995 Meth. Enzymol. 260:163-190). […] Louis, Mo., unless otherwise noted) for 10 min at room temperature. The mixtures were then added to assay buffer (50 mM Tris-HCl, 3.3 mM MgCl2, pH 8.0) in a 96-well plate and ATPase activity was initiated by the addition of 1 mM ATP, 1 mM phophoenolypyruvate, 3 U/ml pyruvate kinase, 10 U/ml lactate dehydrogenase and 0.3 mM NADH. Reactions were monitored by recording absorbance in “kinetic read” mode at 340 nm for 10 min at 30° C. in a termperature-controlled Spectromax Plus-384™ 96-well plate reader (Molecular Devices, Inc., Sunnyvale, Calif.) according to the manufacturer's instructions. In this mode, the plate reader recorded an absorbance value for each well at approximately nine-second intervals. A parallel set of reactions was set up identically except for the addition of 10 μg/ml oligomycin, to correct for the component of ATPase activity that was oligomycin-inhibitable.
Dose-response curves were generated for IF1 peptides 14-33 (SEQ ID NO:30), 14-47 (SEQ ID NO:29), 14-46 (SEQ ID NO:67), 14-45 (SEQ ID NO:66), 14-44 (SEQ ID NO:65), 14-43 (SEQ ID NO:64) and 14-42 (SEQ ID NO:63) by setting up SMP ATPase reactions as described above with serial dilutions of the IF1 peptides over a range of several orders of magnitude between 10^−4 and 10^2 μM (FIG. 12). Data were plotted and IC50 values were calculated using Prism software (GraphPad, San Diego, Calif.) according to the nianufacturer's instructions. […]

INS-1 cells = assay: Glucose-stimulated insulin secretion (GSIS) in INS-1 cells with tat.mito.14-47; type: cell-based, rat; details: 8 mM glucose, varying amounts of fusion protein, FIG. 13
Procedure: The nucleic acid encoding a tat.mito.14-47 fusion protein was constructed essentially as described in Example 2. The tat.mito.14-47 fusion protein (SEQ ID NO:71) enhanced GSIS in INS-1 cells when used in the assay conditions described as follows. Briefly, INS-1 cells were seeded into 12-well plates containing RPMI media supplemented as described at 0.7×10^6 cells/well and cultured at 37° C., 5% CO2 for 2 days. Cells were preincubated in the presence or absence of varying amounts of tat.mito.14-47 or vehicle control in glucose-free RPMI media supplemented with 1% FCS for 1 hr at 37° C. in a humidified 5% CO2/95% air atmosphere. Cells were rinsed with glucose-free modified KRH buffer (134 mM NaCl, 3.6 mM KCl, 0.5 mM NaH2PO4, 0.5 mM MgCl2, 1.5 mM CaCl2, 10 mM HEPES, 5 mM NaHCO3, 0.1% BSA), incubated in the same buffer for 30 min at 37° C. in a humidified 5% CO2/95% air atmosphere, again in the presence or absence of varying amounts of tat.mito.14-47 or vehicle control. Then fresh modified KRH buffer containing 0.25 mM isobutylmethyl xanthine and 8 mM glucose was added, the cells were stimulated for 30 min at 37° C., 5% CO2 and then culture supernatants were collected. Insulin concentrations in the supernatants were measured by immunoasssay (Alpco ELISA Kit) and normalized to protein (Pierce/BCA Kit) according to the manufacturers' instructions.

IC50 ([1]; pH 6.5): 190 ± 24 nM
IC50 ([1]; pH 7.25): 420 ± 56 nM
IC50 ([1]; pH 8): > 800 nM
B1: rat IF1: intact rat inhibitor protein of mitochondrial ATP synthase (SEQ ID NO:13), comparator for peptide 14-47 (protein, listed as Rattus norvegicus)
chain: MAGSALAVRARLGVWGMRVLQTRGFGSDSSESMDSGAGSIREAGGAFGKREKAEEDRYFREKTREQLAALKKHHEDEIDHHSKEIERLQKQIERHKKKIKYLKNSEH

B2: tat.mito.14-47: fusion protein SEQ ID NO:71: polyhistidine tag, tat, mitochondrial targeting sequence, IF1 fragment 14-47 (protein)
chain: MGGSHHHHHHGMASMTGGQQMGRDLYDDDDKDPSSGYGRKKRRQRRRGMAGSALAVRARLGVWGMRVLQTRGFSIREAGGAFGKREKAEEDRYFREKTREQLAALKK
modifications: Fusion protein
effect on GSIS (INS-1 cells): enhanced GSIS; also recorded: further induced glucose stimulated insulin secretion in a dose dependent manner
